Measurements reported in paper PMC8092243, “Cryo-EM Structures of CusA Reveal a Mechanism of Metal-Ion Export” (mBio, 2021).

Target: the molecule itself
Assay: cryo-EM structure; CusA in lipid nanodiscs (MSP 1E3D1, E. coli total extract lipid), 0.7 mg/ml (2 uM), incubated with 20 uM Cu(I), 20 mM HEPES-NaOH pH 7.0; four trimer classes (EEE, EEB, EBB, BBB) from one sample

B1: CusA heavy-metal efflux pump (natural protein, E. coli)
chain: MIEWIIRRSVANRFLVLMGALFLSIWGTWTIINTPVDALPDLSDVQVIIKTSYPGQAPQIVENQVTYPLTTTMLSVPGAKTVRGFSQFGDSYVYVIFEDGTDPYWARSRVLEYLNQVQGKLPAGVSAELGPDATGVGWIYEYALVDRSGKHDLADLRSLQDWFLKYELKTIPDVAEVASVGGVVKEYQVVIDPQRLAQYGISLAEVKSALDASNQEAGGSSIELAEAEYMVRASGYLQTLDDFNHIVLKASENGVPVYLRDVAKVQIGPEMRRGIAELNGEGEVAGGVVILRSGKNAREVIAAVKDKLETLKSSLPEGVEIVTTYDRSQLIDRAIDNLSGKLLEEFIVVAVVCALFLWHVRSALVAIISLPLGLCIAFIVMHFQGLNANIMSLGGIAIAVGAMVDAAIVMIENAHKRLEEWQHQHPDATLDNKTRWQVITDASVEVGPALFISLLIITLSFIPIFTLEGQEGRLFGPLAFTKTYAMAGAALLAIVVIPILMGYWIRGKIPPESSNPLNRFLIRVYHPLLLKVLHWPKTTLLVAALSVLTVLWPLNKVGGEFLPQINEGDLLYMPSTLPGISAAEAASMLQKTDKLIMSVPEVARVFGKTGKAETATDSAPLEMVETTIQLKPQEQWRPGMTMDKIIEELDNTVRLPGLANLWVPPIRNRIDMLSTGIKSPIGIKVSGTVLADIDAMAEQIEEVARTVPGVASALAERLEGGRYINVEINREKAARYGMTVADVQLFVTSAVGGAMVGETVEGIARYPINLRYPQSWRDSPQALRQLPILTPMKQQITLADVADIKVSTGPSMLKTENARPTSWIYIDARDRDMVSVVHDLQKAIAEKVQLKPGTSVAFSGQFELLERANHKLKLMVPMTLMIIFVLLYLAFRRVGEALLIISSVPFALVGGIWLLWWMGFHLSVATGTGFIALAGVAAEFGVVMLMYLRHAIEAVPSLNNPQTFSEQKLDEALYHGAVLRVRPKAMTVAVIIAGLLPILWGTGAGSEVMSRIAAPMIGGMITAPLLSLFIIPAAYKLMWLHRHRVRK
notes: CusA, heavy-metal efflux (HME) RND pump of Escherichia coli; the cusA gene cloned into pET15b; the cryo-EM models incorporate residues Ile-5 to Trp-1039; Homotrimer embedded in lipid nanodiscs, in the presence of Cu(I); The membrane scaffold protein MSP 1E3D1 of the nanodisc is not a studied partner; also called CusA membrane protein; CusA trimer
stoichiometry N: 3
